Experimental data from paper PMC4772727.
Like-named read-outs stand apart in the source and are kept apart here.

Experiments:
Assay in all cases: EMSA
GST-p52 (WT);GST-ETS1 = molecular target: T1, GST-p52 (WT);GST-ETS1 (Homo sapiens;Homo sapiens, UniProt Q00653;P14921 1-454;1-441, |)
T1 sequence 1: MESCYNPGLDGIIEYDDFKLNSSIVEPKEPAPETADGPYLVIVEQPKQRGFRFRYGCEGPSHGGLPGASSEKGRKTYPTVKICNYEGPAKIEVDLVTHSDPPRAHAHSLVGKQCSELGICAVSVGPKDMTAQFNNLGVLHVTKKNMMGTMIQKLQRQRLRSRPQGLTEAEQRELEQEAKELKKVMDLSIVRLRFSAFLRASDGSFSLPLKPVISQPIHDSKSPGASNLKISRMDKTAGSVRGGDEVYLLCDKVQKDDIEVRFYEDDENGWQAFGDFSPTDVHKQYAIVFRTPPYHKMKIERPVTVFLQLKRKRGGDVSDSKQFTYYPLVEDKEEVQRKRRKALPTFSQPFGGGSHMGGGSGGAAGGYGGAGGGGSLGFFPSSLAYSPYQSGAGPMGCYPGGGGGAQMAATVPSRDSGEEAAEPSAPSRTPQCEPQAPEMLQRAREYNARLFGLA
T1 sequence 2: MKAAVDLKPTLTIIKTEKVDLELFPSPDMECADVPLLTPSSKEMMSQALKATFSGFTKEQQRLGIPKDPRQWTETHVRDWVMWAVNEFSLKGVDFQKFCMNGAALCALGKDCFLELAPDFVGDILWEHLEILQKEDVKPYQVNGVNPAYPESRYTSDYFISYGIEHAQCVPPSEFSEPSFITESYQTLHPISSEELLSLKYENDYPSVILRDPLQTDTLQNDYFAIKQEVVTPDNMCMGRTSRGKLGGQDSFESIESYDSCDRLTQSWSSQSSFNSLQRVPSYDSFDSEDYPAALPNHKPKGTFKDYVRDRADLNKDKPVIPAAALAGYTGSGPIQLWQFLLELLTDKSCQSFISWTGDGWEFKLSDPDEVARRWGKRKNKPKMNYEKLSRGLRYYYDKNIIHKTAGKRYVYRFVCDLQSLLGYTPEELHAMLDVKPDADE

GST-ETS1 [1] = molecular target: T2, GST-ETS1 (Homo sapiens, UniProt P14921 1-441)
T2 sequence: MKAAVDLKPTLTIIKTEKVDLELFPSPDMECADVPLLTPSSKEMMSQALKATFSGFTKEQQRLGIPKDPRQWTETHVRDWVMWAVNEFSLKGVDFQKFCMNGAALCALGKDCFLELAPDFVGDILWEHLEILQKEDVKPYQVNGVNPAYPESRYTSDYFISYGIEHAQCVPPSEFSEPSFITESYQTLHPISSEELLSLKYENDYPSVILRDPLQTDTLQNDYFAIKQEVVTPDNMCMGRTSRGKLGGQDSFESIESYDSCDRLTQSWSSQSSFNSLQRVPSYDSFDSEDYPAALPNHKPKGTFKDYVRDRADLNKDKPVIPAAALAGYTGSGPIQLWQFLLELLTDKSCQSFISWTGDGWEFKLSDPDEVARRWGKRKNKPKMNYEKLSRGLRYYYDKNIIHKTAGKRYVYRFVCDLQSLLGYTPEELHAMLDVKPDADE

GST-p52 (WT) [2] = molecular target: T3, GST-p52 (WT) (Homo sapiens, UniProt Q00653 1-454)
T3 sequence: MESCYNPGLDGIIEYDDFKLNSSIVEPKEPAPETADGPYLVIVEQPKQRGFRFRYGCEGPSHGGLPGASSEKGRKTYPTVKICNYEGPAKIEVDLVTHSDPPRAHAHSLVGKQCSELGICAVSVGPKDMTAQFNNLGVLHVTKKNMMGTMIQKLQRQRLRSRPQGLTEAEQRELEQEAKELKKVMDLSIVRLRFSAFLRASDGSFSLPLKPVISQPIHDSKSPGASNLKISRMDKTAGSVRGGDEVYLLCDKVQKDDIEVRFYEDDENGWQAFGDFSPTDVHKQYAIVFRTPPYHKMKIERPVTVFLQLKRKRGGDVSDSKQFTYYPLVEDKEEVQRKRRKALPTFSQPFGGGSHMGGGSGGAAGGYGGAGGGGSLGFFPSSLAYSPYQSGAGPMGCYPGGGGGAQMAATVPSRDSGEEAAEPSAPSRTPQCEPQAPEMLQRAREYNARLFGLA

GST-p52 (WT) [3] = molecular target: T3, GST-p52 (WT); remark: listed apart in the source
GST-ETS1 [4] = molecular target: T2, GST-ETS1; remark: listed apart in the source

Row | Binder | binding result (GST-p52 (WT);GST-ETS1) | binding result (GST-ETS1 [1]) | binding result (GST-p52 (WT) [2]) | binding result (GST-p52 (WT) [3]) | binding result (GST-ETS1 [4])
1 | C250T TERT promoter probe (dsDNA) DNA 1: GTCCCGACCCCTTCCGGGTCCCCGGC DNA 2: GCCGGGGACCCGGAAGGGGTCGGGAC | binds | binds | binds | – | –
2 | WT TERT promoter probe (dsDNA) DNA 1: GTCCCGACCCCTCCCGGGTCCCCGGC DNA 2: GCCGGGGACCCGGGAGGGGTCGGGAC | – | – | – | binds | no binding
